In patent publication US20130244255A1 (published 2013):

Legend:
[1] = molecular target: T1, GPNMB (CG56972) as expressed by human cell lines (human, UniProt Q14956 23-492); test: FACS on UACC-62 cells, antibody 1 ug/mL
T1 construct: Endogenous or transfected full-length protein on cells (FACS, killing assays) or in cell lysates (immunoprecipitation, blot); also called native GPNMB protein
T1 sequence: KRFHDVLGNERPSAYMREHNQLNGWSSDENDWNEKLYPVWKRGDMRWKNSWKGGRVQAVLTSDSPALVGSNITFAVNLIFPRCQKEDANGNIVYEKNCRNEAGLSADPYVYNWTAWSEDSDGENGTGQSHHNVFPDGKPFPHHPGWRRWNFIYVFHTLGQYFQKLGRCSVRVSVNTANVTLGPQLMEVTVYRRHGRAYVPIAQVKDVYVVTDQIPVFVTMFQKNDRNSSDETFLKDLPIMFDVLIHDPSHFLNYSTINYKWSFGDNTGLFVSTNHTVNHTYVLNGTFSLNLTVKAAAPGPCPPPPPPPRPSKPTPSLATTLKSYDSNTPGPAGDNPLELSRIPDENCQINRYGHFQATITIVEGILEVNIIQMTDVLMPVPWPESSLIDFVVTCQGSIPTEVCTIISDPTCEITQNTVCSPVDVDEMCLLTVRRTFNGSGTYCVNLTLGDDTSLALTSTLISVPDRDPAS
Procedure: The specificity of anti-GPNMB antibodies to cell membrane-bound GPNMB protein expressed by melanoma cancer cell line, UACC-62 was analyzed by FACS analysis. […] Cells were washed twice with PBS (Ca and Mg free), incubated with Versene at 37° C. until cells detached, counted and aliquoted at 1 million cells per assay tube. Cells were then washed twice and resuspended in ice-cold FACS buffer (0.01 M HEPES, 0.15M NaCl, 0.1% NaN₃ and 4% FBS). Primary antibody at 1 μg/mL was added to the cells. Cells were incubated on ice for 30 min, washed 2-3 times and resuspended in 1 mL of ice-cold FACS buffer. R-PE-conjugated goat anti-human antibody (Jackson ImmunoResearch Laboratory) at 1:100 dilution was added and cells were incubated on ice for 30 min. After washing 3 times with 1 mL of ice-cold FACS buffer, cells were fixed with 0.5-1 mL of 1% formaldehyde in PBS and analyzed by flow cytometry.

[2] = molecular target: T1, GPNMB (CG56972) as expressed by human …; test: FACS on SW 1783 cells, CR011 10 ug/mL
Procedure: (§1) Quantitative analysis of CG56972 expression on the surface of cell lines was determined by flow cytometry (FACS). […] Cells were fixed in 1% paraformaldehyde/PBS and examined on a Becton Dickinson FACSCalibur flow cytometer. Data analysis was performed with Becton Dickinson Cell Quest software version 3.3 and the geometric mean fluorescence intensity ratio (GMR) was determined for each cell type.

[3] = molecular target: T1, GPNMB (CG56972) as expressed by human …; test: FACS on KG1a cells, antibody 1 ug/mL
Procedure: (§2) Lymphoma or leukemia derived cells were washed twice with ice-cold FACS buffer and resuspended at 1 million cells per assay tube. […] Cells were then washed 2-3 times and resuspended in 1 mL of ice-cold FACS buffer. R-PE-conjugated goat anti-human antibody at 1:100 dilution was added and cells were incubated on ice for 30 min. Cells were washed 3 times with 1 mL of ice-cold FACS buffer, fixed with 0.5-1 mL of 1% formaldehyde in PBS and analyzed by Flow Cytometry.

[4] = molecular target: T1, GPNMB (CG56972) as expressed by human …; test: FACS on HT144 cells
[5] = molecular target: T1, GPNMB (CG56972) as expressed by human …; test: FACS on MV4-11 cells, antibody 1 ug/mL
[6] = molecular target: T1, GPNMB (CG56972) as expressed by human …; test: FACS on U87MG cells, CR011 10 ug/mL
Procedure: as §1

[7] = molecular target: T1, GPNMB (CG56972) as expressed by human …; test: FACS on SIG-M5 cells, antibody 1 ug/mL
Procedure: as §2

[8] = molecular target: T1, GPNMB (CG56972) as expressed by human …; test: FACS on Jurkat cells, antibody 1 ug/mL
Procedure: as §2

[9] = molecular target: T1, GPNMB (CG56972) as expressed by human …; test: FACS on WSU-NH2 cells, antibody 1 ug/mL
Procedure: as §2

[10] = molecular target: T2, Recombinant human GPNMB extra-cellular domain (ECD) with a C-terminus V5-HIS tag (human, UniProt Q14956 23-492); test: Biacore, mAb captured on protein A
T2 construct: Expressed in HEK293; also called GPNMB-V5His; GPNMB-soluble
T2 sequence: T1 sequence
Procedure: Certain Hybridoma cell supernatants (29) were analyzed for binding to GPNMB by BiaCore® 2000 biosensor equipped with a research-grade CM5 sensor chip. A 1:25 dilution of cell supernatant was passed over a protein A surface for 5 min followed by washing the surface for 10 mins. […] GPNMB binding data for each mAb was normalized for the amount of mAb captured on each surface. Normalized, drift corrected responses were also measured. The sensorgrams were fit to a simple 1:1 kinetic model.

[11] = molecular target: T1, GPNMB (CG56972) as expressed by human …; test: FACS on K562 cells, antibody 1 ug/mL
Procedure: as §2

[12] = molecular target: T1, GPNMB (CG56972) as expressed by human …; test: FACS on DEL cells, antibody 1 ug/mL
Procedure: as §2

[13] = molecular target: T1, GPNMB (CG56972) as expressed by human …; test: FACS on SR cells, antibody 1 ug/mL
Procedure: as §2

[14] = molecular target: T1, GPNMB (CG56972) as expressed by human …; test: FACS on WM115 cells
[15] = molecular target: T1, GPNMB (CG56972) as expressed by human …; test: FACS on SUP-M2 cells, antibody 1 ug/mL
Procedure: as §2

[16] = molecular target: T1, GPNMB (CG56972) as expressed by human …; test: FACS on THP-1 cells, antibody 1 ug/mL
Procedure: as §2

[17] = molecular target: T1, GPNMB (CG56972) as expressed by human …; test: FACS on WM-266-4 cells
[18] = molecular target: T1, GPNMB (CG56972) as expressed by human …; test: FACS on U-118-MG cells, CR011 10 ug/mL
Procedure: as §1
Geometric Mean ratios (GMR) were determined by flow cytometric analysis.

[19] = molecular target: T1, GPNMB (CG56972) as expressed by human …; test: FACS on D450-MG cells, CR011 10 ug/mL
Procedure: as §1

[20] = molecular target: T1, GPNMB (CG56972) as expressed by human …; test: FACS on HUT-102 cells, antibody 1 ug/mL
[21] = molecular target: T1, GPNMB (CG56972) as expressed by human …; test: FACS on PL-21 cells, antibody 1 ug/mL
Procedure: as §2

[22] = molecular target: T1, GPNMB (CG56972) as expressed by human …; test: FACS on HEMNLP cells
[23] = molecular target: T1, GPNMB (CG56972) as expressed by human …; test: FACS on CCRF-CEM cells, antibody 1 ug/mL
Procedure: as §2

[24] = molecular target: T1, GPNMB (CG56972) as expressed by human …; test: FACS on UACC-62 cells

B1: CR011 mAb 1.15.1 (IgG2) (antibody)
heavy: QVQLQESGPGLVKPSQTLSLTCTVSGGSISSFNYYWSWIRHHPGKGLEWIGYIYYSGSTYSNPSLKSRVTISVDTSKNQFSLTLSSVTAADTAVYYCARGYNWNYFDYWGQGTLVTVSSASTKGPSVFPLAPCSRSTSESTAALGCLVKDYFPEPVTVSWNSGALTSGVHTFPAVLQSSGLYSLSSVVTVPSSNFGTQTYTCNVDHKPSNTKVDKTVERKCCVECPPCPAPPVAGPSVFLFPPKPKDTLMISRTPEVTCVVVDVSHEDPEVQFNWYVDGVEVHNAKTKPREEQFNSTFRVVSVLTVVHQDWLNGKEYKCKVSNKGLPAPIEKTISKTKGQPREPQVYTLPPSREEMTKNQVSLTCLVKGFYPSDIAVEWESNGQPENNYKTTPPMLDSDGSFFLYSKLTVDKSRWQQGNVFSCSVMHEALHNHYTQKSLSLSPGK
VL: not shown
notes: also called CR011.1.15.1; CR011 IgG2
Geo Mean Ratio (relative to pK16) [1]: 7.89 ratio | CR011 Fold Shift (GMR) [2]: 1.1 fold | Geo Mean Ratio [3]: 2.7 ratio | Geo Mean Ratio (relative to isotype) [4]: 7.4 ratio | Geo Mean Ratio [5]: 1.9 ratio | CR011 Fold Shift (GMR) [6]: 1.5 fold | Geo Mean Ratio [7]: 2.9 ratio | Geo Mean Ratio [8]: 14.7 ratio | Geo Mean Ratio [9]: 1 ratio | Kd [10]: 52 nM | koff [10]: 0.000855 s⁻¹ | kon [10]: 16500 M⁻¹ s⁻¹ | Geo Mean Ratio [11]: 2.8 ratio | Geo Mean Ratio [12]: 7.9 ratio | Geo Mean Ratio [13]: 7.1 ratio | Geo Mean Ratio (relative to isotype) [14]: 1.3 ratio | Geo Mean Ratio [15]: 4.8 ratio | Geo Mean Ratio [16]: 6.1 ratio | Geo Mean Ratio (relative to isotype) [17]: 13.6 ratio | CR011 Fold Shift (GMR) [18]: 7.4 fold | CR011 Fold Shift (GMR) [19]: 1.6 fold | Geo Mean Ratio [20]: 1 ratio | Geo Mean Ratio [21]: 12 ratio | Geo Mean Ratio (relative to isotype) [22]: 10.2 ratio | Geo Mean Ratio [23]: 10.9 ratio | Geo Mean Ratio (relative to isotype) [24]: 5.5 ratio
